The Immune Epitope Database (IEDB)
Each block holds one sequence with its values, some of them ahead of it.

Experiments:
HLA-B*07:02 = assay: IEDB peptide-MHC binding, purified MHC/competitive/radioactivity; filed as Kd, often an IC50 or EC50 that approximates it; ≥ and ≤ were set here for values at or beyond the usual limits of such assays
HLA-B*35:01 = assay: as above
HLA-A*68:02 = assay: as above
HLA-A*26:01 = assay: as above
HLA-A*03:01 = assay: IEDB peptide-MHC binding, purified MHC/competitive/fluorescence; filed as Kd, often an IC50 or EC50 that approximates it; ≥ and ≤ were set here for values at or beyond the usual limits of such assays
HLA-A*02:01 = assay: IEDB peptide-MHC binding, purified MHC/competitive/fluorescence; ≥ and ≤ were set here for values at or beyond the usual limits of such assays; conditions: source organism: Vaccinia virus
HLA-A*11:01 = assay: as above
HLA-A*24:02 [1] = assay: as above; conditions: source organism: Vaccinia virus
HLA-B*15:03 = assay: IEDB peptide-MHC binding, purified MHC/competitive/radioactivity; filed as Kd, often an IC50 or EC50 that approximates it; ≥ and ≤ were set here for values at or beyond the usual limits of such assays
HLA-A*02:06 = assay: as above; conditions: source organism: Dengue virus 4 Philippines/H241/1956
HLA-A*23:01 = assay: as above
HLA-B*15:01 = assay: as above
HLA-B*51:01 = assay: as above; conditions: source organism: Dengue virus 3 Martinique/1243/1999
HLA-B*53:01 = assay: as above; conditions: source organism: Dengue virus 3 Martinique/1243/1999
HLA-B*57:01 = assay: as above; conditions: source organism: Dengue virus 1 Brazil/97-11/1997
HLA-A*32:01 = assay: as above; conditions: source organism: Vaccinia virus Copenhagen
HLA-B*08:01 = assay: as above; conditions: source organism: Vaccinia virus Copenhagen
HLA-A*24:02 [2] = assay: as above; conditions: source organism: Dengue virus 3 Martinique/1243/1999
[3] = source organism: Dengue virus 4 Philippines/H241/1956
[4] = source organism: Dengue virus 3 Martinique/1243/1999
[5] = source organism: Dengue virus 2 Jamaica/1409/1983
[6] = source organism: Vaccinia virus Copenhagen
[7] = source organism: Vaccinia virus WR

Sequence: RPLSEKEENM
Kd (HLA-B*07:02; [3]): 2030 nM
Kd (HLA-B*35:01; [3]): ≥ 30100 nM

Sequence: MAVGLVSILA
Kd (HLA-A*68:02; [4]): 3.23 nM

Sequence: ETILELTDAL
Kd (HLA-A*26:01; [5]): 277 nM
Kd (HLA-A*68:02; [5]): 134 nM

Sequence: KLSSEQLSK
Kd (HLA-A*03:01; source organism: Trypanosoma cruzi): 108 nM

Sequence: ETPNLAERV
Kd (HLA-A*68:02; source organism: Dengue virus 1 Singapore/S275/1990): 24.8 nM

Sequence: GTAKLRWFV
Kd (HLA-A*68:02; source organism: Dengue virus 1 Brazil/97-11/1997): 30.7 nM

Sequence: VSYNDYFNV
IC50 (HLA-A*02:01): 743 nM
IC50 (HLA-A*11:01; source organism: Vaccinia virus): 14300 nM
IC50 (HLA-A*24:02 [1]): ≥ 77100 nM

Sequence: LKSNADWFF
Kd (HLA-B*15:03; [6]): 10.2 nM

Sequence: TTANWLWAL
Kd (HLA-A*02:06): 5.93 nM
Kd (HLA-A*26:01; [3]): 3080 nM
Kd (HLA-A*68:02; [3]): 6.36 nM

Sequence: ANGSLFTEQ
IC50 (HLA-A*11:01; [7]): ≥ 104000 nM

Sequence: CLIPTAMAF
Kd (HLA-A*23:01; [3]): 451 nM
Kd (HLA-B*15:01; [3]): 9.43 nM

Sequence: PNRSTKGGQ
IC50 (HLA-A*11:01; source organism: Zaire ebolavirus): 46500 nM

Kd (HLA-A*68:02; source organism: Homo sapiens): ≥ 60000 nM
Sequence: KLLEGEESRI

Sequence: RLLHRTTRK
Kd (HLA-A*03:01; source organism: Yersinia pestis Nepal516): 13.3 nM

Sequence: FPYSIPATLL
Kd (HLA-B*07:02; [4]): 28 nM
Kd (HLA-B*35:01; [4]): 131 nM
Kd (HLA-B*51:01): 325 nM
Kd (HLA-B*53:01): 9.97 nM

Sequence: RKVKSYNYM
Kd (HLA-B*15:03; [7]): 2.58 nM

Sequence: ILMGLDKGW
Kd (HLA-B*57:01): 49 nM

Sequence: WLSLLVPFV
Kd (HLA-B*07:02; source organism: Hepatitis B virus): ≥ 35000 nM

Sequence: SLNSIFNTF
Kd (HLA-A*32:01): 13.8 nM
Kd (HLA-B*08:01): ≥ 30600 nM
Kd (HLA-B*15:01; [6]): 2.22 nM
Kd (HLA-B*15:03; [6]): 209 nM

Sequence: HMIAGVFFTF
Kd (HLA-A*23:01; [4]): 28.9 nM
Kd (HLA-A*24:02 [2]): 98.9 nM
Kd (HLA-A*26:01; [4]): ≥ 32800 nM
Kd (HLA-B*15:01; [4]): 1.47 nM

Sequence: LMRSICVSI
Kd (HLA-A*32:01): 380 nM
Kd (HLA-B*15:01; [6]): 63.4 nM
